Experiment [1] addresses T1, human CD134 (full-length, on cells) (human, UniProt P43489 29-277).
T1 construct: also called OX40; TNFRSF4
T1 sequence: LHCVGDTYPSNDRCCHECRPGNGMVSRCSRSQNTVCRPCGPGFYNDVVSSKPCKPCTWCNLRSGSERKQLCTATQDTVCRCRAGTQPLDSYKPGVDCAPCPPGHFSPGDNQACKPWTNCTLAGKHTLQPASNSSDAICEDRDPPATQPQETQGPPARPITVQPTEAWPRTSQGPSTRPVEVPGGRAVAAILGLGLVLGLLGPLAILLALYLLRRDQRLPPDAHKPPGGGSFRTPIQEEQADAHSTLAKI
Briefly: flow cytometry, stable CD134 293-F clone no. 5, biotinylated antibody detected with streptavidin-PE.

In experiment [2] the target is T1, human CD134 (full-length, on cells). Briefly: flow cytometry, stable CD134 293-F clone no. 23. The procedure: Full-length human CD134 (SEQ ID NO. 1) was re-cloned in a pcDNA3.1-derived expression plasmid (see Example 11 (d) below). […] After extensive washing in PBS/BSA/NaN₃, cells were subsequently incubated with 1:200 diluted PE-conjugated goat anti-mouse IgG (Fcγ specific) antibodies (Jackson ImmunoResearch) or with 1:200 diluted PE-conjugated goat anti-human IgG (Fcγ specific) antibodies (Jackson ImmunoResearch) for 30 minutes at 4° C. After extensive washing in PBS/BSA/NaN₃, cells were fixed in 2% formaldehyde in PBS/BSA/NaN₃ for 30 minutes at 4° C. Binding of antibodies was measured using flow cytometry (FACSCalibur; BD Biosciences).

Experiment [3] addresses T2, recombinant human CD134:human Fcγ (IgG1) fusion protein (human, UniProt P01857-1 100-330 = IgG part, limits assumed).
T2 construct: domain: Fcγ (IgG1); Bought (R&D Systems); also called rhuCD134
The experiment can be described thus: ELISA, plate-bound CD134:Fc, biotinylated antibody detected with streptavidin-HRP.

The target of experiment [4] is T3, truncated human CD134 'truncated (tc) CRD4' construct (human, UniProt P43489 147-277).
T3 construct: also called truncated CRD4
T3 sequence: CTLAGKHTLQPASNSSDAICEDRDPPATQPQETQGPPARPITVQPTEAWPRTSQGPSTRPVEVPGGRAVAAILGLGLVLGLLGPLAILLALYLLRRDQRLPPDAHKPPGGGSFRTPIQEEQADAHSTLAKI
The experiment can be described thus: flow cytometry, transiently transfected 293-F cells. The procedure: After 48 h, surface human CD134 expression on transfected cells was analyzed by FACS analysis. To this end, transfected cells were harvested and put at 1-2×10⁶ cells/mL in ice-chilled PBS/BSA/NaN₃ supplemented with 50 μg/mL purified human IgG (Sigma; blocking Fey receptors). […] After extensive washing in PBS/BSA/NaN₃, cells were subsequently incubated with 1:200 diluted PE-conjugated goat anti-mouse IgG (Fcγ specific) antibodies (Jackson ImmunoResearch) or with 1:200 diluted PE-conjugated goat anti-human IgG (Fcγ specific) antibodies (Jackson ImmunoResearch) for 30 minutes at 4° C. […] After extensive washing in PBS/BSA/NaN₃, cells were subsequently incubated with 1:200 diluted PE-conjugated goat anti-mouse IgG (Fcγ specific) antibodies (Jackson ImmunoResearch) for 30 minutes at 4° C. After extensive washing in PBS/BSA/NaN₃, cells were fixed in 2% formaldehyde in PBS/BSA/NaN₃ for 30 minutes at 4° C. Binding of antibodies was measured using flow cytometry (FACSCalibur; BD Biosciences).

Experiment [5] has as its target T1, human CD134 (full-length, on cells). Briefly: competition flow cytometry, stable CD134 293-F clone no. 5; competitor biotinylated mouse 12H3 at 700 ng/mL. The procedure: Full-length human CD134 (SEQ ID NO1) was re-cloned in a pcDNA3.1-derived expression plasmid (see Example 11 (c) above). […] After extensive washing in PBS/BSA/NaN₃, cells were fixed in 2% formaldehyde in PBS/BSA/NaN₃ for 30 minutes at 4° C.

For experiment [6] the target is unchanged. Briefly: flow cytometry, PHA-stimulated human CD3+ T lymphocytes.
For experiment [7], the target named is T2, recombinant human CD134:human Fcγ …. The experiment can be described thus: competition ELISA, plate-bound CD134:Fc; competitor biotinylated mouse 12H3 at 20 ng/mL. The procedure: Ninety six-wells flat-bottom ELISA plates (Corning) were coated with 50 ng/well recombinant human CD134:human Fcγ (IgG1) fusion protein (R&D Systems) in PBS o/n at 4° C. After extensive washing in PBS/0.05% Tween 20, plates were blocked in PBS/0.05% Tween 20/1% BSA fraction V (Roche) for 1 hour at RT. […] After adding 1 M H₂SO₄, optical densities were measured at a wavelength of 450 nm (reference wavelength of 655 nm) using a microplate reader (BioRad).

The target of experiment [8] is T4, human fibronectin-derived control peptide (extra type III structural domain) (human).
T4 construct: Synthesized by Pepscan Presto; coated on ELISA plates
T4 peptide: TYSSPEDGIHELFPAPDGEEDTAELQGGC
The experiment can be described thus: peptide ELISA. The procedure:
(§1) After adding 1 M […], optical densities was measured at a wavelength of 450 nm (reference wavelength of 655 nm) using a microplate reader (BioRad).
(§2) Ninety six-wells flat-bottom ELISA plates (Corning) were coated with 10 ng/well human CD134-derived peptide (synthesized by Pepscan Presto, Lelystad, The Netherlands), which corresponded to amino acid sequence of truncated CRD3 A1-module-CRD4 subdomain A1 module (see SEQ ID NO. 38) or with 10 ng/well human fibronectin-derived control peptide (synthesized by Pepscan Presto, Lelystad, The Netherlands), which corresponded to amino acid sequence of extra type III structural domain (see SEQ ID NO. 37) in PBS o/n at 4° C. After extensive washing in PBS/0.05% Tween 20, plates were blocked in PBS/0.05% Tween 20/1% BSA fraction V (Roche) for 1 hour at RT. […] After extensive washing in PBS/0.05% Tween 20, binding of antibodies was determined with 1:5000 diluted horseradish peroxidase-conjugated goat anti-human IgG Fcγ-specific antibodies (Jackson ImmunoResearch) for 1 hour at RT, followed by a ready-to-use solution of TMB substrate (Invitrogen) for colorimetric detection. After adding 1 M H₂SO₄, optical densities was measured at a wavelength of 450 nm (reference wavelength of 655 nm) using a microplate reader (BioRad).

Experiment [9] deals with T5, human CD134-derived peptide (truncated CRD3 A1-module-CRD4 subdomain A1-module) (human).
T5 construct: Synthesized by Pepscan Presto; coated on ELISA plates
T5 peptide: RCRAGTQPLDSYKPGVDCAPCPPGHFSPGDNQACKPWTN
The experiment can be described thus: peptide ELISA, 10 ng/well peptide coated. The procedure:
as §1, §2

Where only a bound is given, the exact number is not on record here.

B1: mouse anti-human CD134 monoclonal antibody clone 12H3 (antibody, V domains shown)
VH: EVQLQQSGPELVKPGASVKISCKTSGYTFKDYTMHWVKQSHGKSLEWIGGIYPNNGGSTYNQNFKDKATLTVDKSSSTAYMEFRSLTSEDSAVYYCARMGYHGPHLDFDVWGAGTTVTVSP
VL: DIVMTQSHKFMSTSLGDRVSITCKASQDVGAAVAWYQQKPGQSPKLLIYWASTRHTGVPDRFTGGGSGTDFTLTISNVQSEDLTDYFCQQYINYPLTFGGGTKLEIKR
notes: also called m12H3; parental mouse anti-human CD134 antibody clone 12H3
As to B1, the EC50 is around 0.7 µg/mL in experiment [1], above 0.2 µg/mL in experiment [2], around 0.02 µg/mL in experiment [3] and around 0.5 µg/mL in experiment [6]. For the same molecule, the binding result is “no binding (tested: 20.0 µg/mL)” in experiment [4], “no binding (tested: 50.0 µg/mL)” in [8] and “binds” in experiment [9]. Also, the results for the IC50 in experiment [5] and in [7] were around 3.5 µg/mL and around 0.75 µg/mL, respectively.
